# Experimental data: patent publication US11485769B2, “Peptides and combination of peptides for use in immunotherapy and methods for generating scaffolds for the use against pancreatic cancer and other cancers” (Immatics Biotechnologies GmbH, priority 2015, dated 2022)
# Target: HLA-A*02:01 (Homo sapiens, UniProt P04439, D140Y/D185E/D98H/E176V/E277Q/G131W/G231S/I119V/I121R/I166T/I218V/L300P/L318F/N151K/N90K/P208A/P217A/Q86G/Q94H/R138H/R169H/T345S)
# Test: MHC binding assay (UV-ligand exchange, beta2m ELISA, peptide exchange yield)
# Details: binding to HLA-A*02:01 ranged by peptide exchange yield, β2m ELISA
# From the text: Candidate peptides for T cell based therapies according to the present invention were further tested for their MHC binding capacity (affinity). The individual peptide-MHC complexes were produced by UV-ligand exchange, where a UV-sensitive peptide is cleaved upon UV-irradiation, and exchanged with the peptide of interest as analyzed. Only peptide candidates that can effectively bind and stabilize the peptide-receptive MHC molecules prevent dissociation of the MHC complexes. To determine the yield of the exchange reaction, an ELISA was performed based on the detection of the light chain (β2m) of stabilized MHC complexes. The assay was performed as generally described in Rodenko et al. (Rodenko et al., 2006).
# 96 well MAXISorp plates (NUNC) were coated over night with 2 ug/ml streptavidin in PBS at room temperature, washed 4× and blocked for 1 h at 37° C. in 2% BSA containing blocking buffer. Refolded HLA-A*02:01/MLA-001 monomers served as standards, covering the range of 15-500 ng/ml. Peptide-MHC monomers of the UV-exchange reaction were diluted 100 fold in blocking buffer. Samples were incubated for 1 h at 37° C., washed four times, incubated with 2 ug/ml HRP conjugated anti-μ2m for 1h at 37° C., washed again and detected with TMB solution that is stopped with […]. Absorption was measured at 450 nm. Candidate peptides that show a high exchange yield (preferably higher than 50%, most preferred higher than 75%) are generally preferred for a generation and production of antibodies or fragments thereof, and/or T cell receptors or fragments thereof, as they show sufficient avidity to the MHC molecules and prevent dissociation of the MHC complexes.
# MHC class I binding scores. Binding of HLA-class I restricted peptides to HLA-A*02:01 was ranged by peptide exchange yield: ≥10%=+; ≥20%=++; ≥50=+++; >75%=++++
row,Substance,Peptide exchange (MHC class I binding score)
1,139 (SIDRNPPQL; listed as Homo sapiens) [compound 139],“+++” (≥50=+++)
2,81 (VVYDDSTGLIRL; listed as Homo sapiens) [compound 81],“+++” (≥50=+++)
3,12 (AQYKFVYQV; listed as Homo sapiens) [compound 12],“+++” (≥50=+++)
4,156 (LLLPPPPCPA; listed as Homo sapiens) [compound 156],“+++” (≥50=+++)
5,45 (ILYSDDGQKWTV; listed as Homo sapiens) [compound 45],“+++” (≥50=+++)
6,138 (NIFPNPEATFV; listed as Homo sapiens) [compound 138],“+++” (≥50=+++)
7,126 (ALLSLDPAAV; listed as Homo sapiens) [compound 126],“++++” (>75%=++++)
8,8 (ALYTGSALDFV; listed as Homo sapiens) [compound 8],“+++” (≥50=+++)
9,149 (ILGTEDLIVEV; listed as Homo sapiens) [compound 149],“+++” (≥50=+++)
10,133 (ILDDVSLTHL; listed as Homo sapiens) [compound 133],“++” (≥20%=++)
11,145 (TTFPRPVTV; listed as Homo sapiens) [compound 145],“+++” (≥50=+++)
12,69 (VLFSGSLRL; listed as Homo sapiens) [compound 69],“+++” (≥50=+++)
13,93 (SIDSEPALV; listed as Homo sapiens) [compound 93],“+++” (≥50=+++)
14,147 (YAFPKAVSV; listed as Homo sapiens) [compound 147],“++” (≥20%=++)
15,103 (AVAAVLTQV; listed as Homo sapiens) [compound 103],“+++” (≥50=+++)
16,111 (LLLAAARLAAA; listed as Homo sapiens) [compound 111],“+++” (≥50=+++)
17,73 (VMVDGKPVNL; listed as Homo sapiens) [compound 73],“++++” (>75%=++++)

# Further lines, results first:
row,Peptide exchange (MHC class I binding score),Substance
1,“+++” (≥50=+++),100 (ALFGAGPASI; listed as Homo sapiens) [compound 100]
2,“++++” (>75%=++++),92 (YLTNEGIAHL; listed as Homo sapiens) [compound 92]
3,“+++” (≥50=+++),102 (ALYPGTDYTV; listed as Homo sapiens) [compound 102]
4,“+++” (≥50=+++),50 (LLFGSDGYYV; listed as Homo sapiens) [compound 50]
5,“+++” (≥50=+++),159 (SLLDLHTKV; listed as Homo sapiens) [compound 159]
6,“++++” (>75%=++++),86 (GLGDFIFYSV; listed as Homo sapiens) [compound 86]
7,“+++” (≥50=+++),21 (GLVDGRDLVIV; listed as Homo sapiens) [compound 21]
8,“+++” (≥50=+++),118 (TLWYRPPEL; listed as Homo sapiens) [compound 118]
9,“+++” (≥50=+++),114 (SLFPHNPQFI; listed as Homo sapiens) [compound 114]
10,“++” (≥20%=++),51 (LLGPAGARA; listed as Homo sapiens) [compound 51]
11,“++” (≥20%=++),40 (GLAPQIHDL; listed as Homo sapiens) [compound 40]
12,“+++” (≥50=+++),87 (GLLPALVAL; listed as Homo sapiens) [compound 87]
13,“++++” (>75%=++++),60 (SLWEDYPHV; listed as Homo sapiens) [compound 60]
14,“++” (≥20%=++),144 (TAVALLRLL; listed as Homo sapiens) [compound 144]
15,“+++” (≥50=+++),161 (YLPDIIKDQKA; listed as Homo sapiens) [compound 161]
16,“++” (≥20%=++),11 (ALYYNPHLL; listed as Homo sapiens) [compound 11]
